Patent US20150202250A1

Target: isolated NS2B-NS3 protein complex from the DENV-2 viral genome (Dengue virus type 2 (DENV-2)) (UniProt P14340)
Experiment: cell-based or functional assay

Sequence of UniProt P14340 (P14340 1394-1440 limits assumed, chain 1 of 2): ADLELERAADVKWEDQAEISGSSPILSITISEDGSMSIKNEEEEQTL
Sequence of UniProt P14340 (P14340 1476-1660 limits assumed, chain 2 of 2): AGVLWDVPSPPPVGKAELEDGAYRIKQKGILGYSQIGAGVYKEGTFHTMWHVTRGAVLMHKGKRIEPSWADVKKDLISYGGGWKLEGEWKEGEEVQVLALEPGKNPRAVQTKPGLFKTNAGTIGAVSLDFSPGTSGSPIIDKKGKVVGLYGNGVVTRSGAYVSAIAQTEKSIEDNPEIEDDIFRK

B1: RetroMAD1 (protein)
chain: MGRICRCICGRGICRCICGVPGVGVPGVGGATGSDVNFDLSTATAKTYTKFIEDFRATLPFSHKVYDIPLLYSTISDSRRFILLDLTSYAYETISVAIDVTNVYVVAYRTRDVSYFFKESPPEAYNILFKGTRKITLPYTGNYENLQTAAHKIRENIDLGLPALSSAITTLFYYNAQSAPSALLVLIQTTAEAARFKYIERHVAKYVATNFKPNLAIISLENQWSALSKQIFLAQNQGGKFRNPVDLIKPTGERFQVTNVDSDVVKGNIKLLLNSRASTADENFITTMTLLGESVVEFPWALWKTMLKELGTMALHAGKAALGAAADTISQGTQVPGVGVPGVGKLAAALEHHHHHH
- inhibition of NS2B-NS3 protease (cleavage of fluorogenic peptide substrate) (% inhibition at 10.8 µM): 94.3
